B1: Betacellulin: growth and differentiation factor (protein, UniProt P35070 32-111, looked up)
Betacellulin: DGNSTRSPETNGLLCGDPEENCAATTTQSKRKGHFSRCPKQYKHYCIKGRCRFVVAEQTPSCVCDEGYIGARCERVDLFY
B2: KGF: keratinocyte growth factor or FGF-7 (protein, UniProt P21781 32-194, looked up)
Fibroblast growth factor 7: CNDMTPEQMATNVNCSSPERHTRSYDYMEGGDIRVRRLFCRTQWYLRIDKRGKVKGTQEMKNNYNIMEIRTVAVGIVAIKGVESEFYLAMNKEGKLYAKKECNEDCNFKELILENHYNTYASAKWTHNGGEMFVALNQKGIPVRGKKTKKEQKTAHFLPMAIT
B3: Activin A: growth and differentiation factor (protein, UniProt P08476 311-426, looked up)
Inhibin beta A chain: GLECDGKVNICCKKQFFVSFKDIGWNDWIIAPSGYHANYCEGECPSHIAGTSGSSLSFHSTVINHYRMRGHSPFANLKSCCVPTKLRPMSMLYYDDGQNIIKKDIQNMIVEECGCS
B4: BMP-4: Bone Morphogenic Protein (protein, UniProt P12644 293-408, looked up)
Bone morphogenetic protein 4: SPKHHSQRARKKNKNCRRHSLYVDFSDVGWNDWIVAPPGYQAFYCHGDCPFPLADHLNSTNHAIVQTLVNSVNSSIPKACCVPTELSAISMLYLDEYDKVVLKNYQEMVVEGCGCR
B5: Soybean Trypsin Inhibitor: A high-molecular-weight protein (approximately 22,500) containing 198 amino acid residues (protein, UniProt P01070 25-205, looked up)
Trypsin inhibitor A: DFVLDNEGNPLENGGTYYILSDITAFGGIRAAPTGNERCPLTVVQSRNELDKGIGTIISSPYRIRFIAEGHPLSLKFDSFAVIMLCVGIPTEWSVVEDLPEGPAVKIGENKDAMDGWFRLERVSDDEFNNYKLVFCPQQAEDDKCGDIGISIDHDDGTRRLVVSKNKPLVVQFQKLDKESL
B6: TGF beta sRII: TGF beta soluble receptor type 2 (protein, UniProt P37173 23-166, looked up)
extracellular domain: TIPPHVQKSVNNDMIVTDNNGAVKFPQLCKFCDVRFSTCDNQKSCMSNCSITSICEKPQEVCVAVWRKNDENITLETVCHDPKLPYHDFILEDAASPKCIMKEKKKPGETFFMCSCSSDECNDNIIFSEEYNTSNPDLLLVIFQ
modifications: extracellular domain
B7: Prolactin: A growth factor with strong structural similarity to growth hormone (protein, UniProt P01236 29-227, looked up)
Prolactin: LPICPGGAARCQVTLRDLFDRAVVLSHYIHNLSSEMFSEFDKRYTHGRGFITKAINSCHTSSLATPEDKEQAQQMNQKDFLSLIVSILRSWNEPLYHLVTEVRGMQEAPEAILSKAVEIEEQTKRLLEGMELIVSQVHPETKENEIYPVWSGLPSLQMADEESRLSAYYNLLHCLRRDSHKIDNYLKLLKCRIIHNNNC
B8: P1GF: Placental GF, human (protein, UniProt P49763 19-221, looked up)
Placenta growth factor: LPAVPPQQWALSAGNGSSEVEVVPFQEVWGRSYCRALERLVDVVSEYPSEVEHMFSPSCVSLLRCTGCCGDENLHCVPVETANVTMQLLKIRSGDRPSYVELTFSQHVRCECRHSPGRQSPDMPGDFRADAPSFLPPRRSLPMLFRMEWGCALTGSQSAVWPSSPVPEEIPRMHPGRNGKKQQRKPLREKMKPERCGDAVPRR

The molecules below were run on conversion of stem cells into insulin producing cells. Settings: statistical analysis of insulin content of supernatants, 3 donors, combinatorial array in alginate.
Format: cell-based

Molecule | effect on the conversion of stem cells into insulin producing cells
B1 | potential positive effect
B2 | potential positive effect
B3 | potential negative effect
B4 | potential negative effect
B5 | potential negative effect
B6 | potential positive effect
B7 | potential negative effect
B8 | potential negative effect

Source: patent publication US20040259244A1, “Methods, compositions, and growth and differentiation factors for insulin-producing cells” (priority 2002, published 2004)
